# Results as given in US20020119494A1 (Boehringer Ingelheim, published 2002).
# No end group written: not given here.
# T1: FPRL-1 (formyl peptide receptor like-1) receptor (human, UniProt P25090 1-351)
# T1 sequence: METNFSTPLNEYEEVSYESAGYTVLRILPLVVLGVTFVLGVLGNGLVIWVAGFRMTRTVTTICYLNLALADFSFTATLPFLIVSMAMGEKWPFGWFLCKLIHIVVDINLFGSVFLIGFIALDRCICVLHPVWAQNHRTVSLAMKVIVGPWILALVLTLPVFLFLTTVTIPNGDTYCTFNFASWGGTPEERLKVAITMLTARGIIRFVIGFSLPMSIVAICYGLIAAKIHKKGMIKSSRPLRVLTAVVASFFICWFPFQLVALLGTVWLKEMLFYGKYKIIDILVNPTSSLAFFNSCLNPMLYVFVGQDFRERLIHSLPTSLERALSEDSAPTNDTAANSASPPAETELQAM
# B1: W-peptide (peptide)
# peptide: WKYMVM
# modifications: not fully specified (residue 6)
# Key:
# Assay in all cases: cell-based or functional assay
# [1] = target: T1, FPRL-1 (formyl peptide receptor like-1) …
# [2] = target: T1, FPRL-1 (formyl peptide receptor like-1) …; remark: listed apart in the source
# [3] = target: T1, FPRL-1 (formyl peptide receptor like-1) …; remark: listed apart in the source
# [4] = target: T1, FPRL-1 (formyl peptide receptor like-1) …; remark: listed apart in the source
binder,measurement,setting,value
B1,"Expression of TNFα in MonoMac 6 cells, fold induction at 3 h, W-peptide (1 µM)",[1],1.03 fold induction
same,"Expression of MMP-12 in MonoMac 6 cells, fold induction at 3 h, W-peptide (1 µM)",[2],1.51 fold induction
same,"Expression of IL-8 in MonoMac 6 cells, fold induction at 3 h, W-peptide (1 µM)",[3],1.54 fold induction
same,"Migration Index of MonoMac6 cells, W-peptide (10 nM)",[4],0.95 migration index (fold over control medium)
same,"Migration Index of MonoMac6 cells, W-peptide (100 nM)",[4],1.23 migration index (fold over control medium)
same,"Migration Index of MonoMac6 cells, W-peptide (1 µM)",[4],2.46 migration index (fold over control medium)
